# Test system: MS2 coat protein
# Assay: apparent KD of MS2 coat protein; designed switch direction (-1 OFF switch, 1 ON switch): 1; higher = weaker reporter binding
# Summary of the method: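 Each step of the titration lasted 0.8–1.5 h at the lowest concentration and 10–20 min at the highest. The protein, SNAP-549-labelled MS2 coat protein, went from 0.7 or 1.5 nM doubling to 3 µM over RNA switches transcribed on Illumina chips by stalled E. coli RNA polymerase. Normalised cluster fluorescence was curve-fitted, and the per-design median over clusters is given as apparent KD.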
# [1] = input ligand: microRNA oligo, concentration not stated
# [2] = Eterna round: R95, input ligand: FMN 200 uM
# [3] = Eterna round: R95, input ligand: microRNA oligo, concentration not stated
# [4] = Eterna round: R95, input ligand: none
Sequence,apparent KD of MS2 coat protein (input ligand: FMN 200 uM) [nM],apparent KD of MS2 coat protein [1] [nM],apparent KD of MS2 coat protein (input ligand: none) [nM],apparent KD of MS2 coat protein [2] [nM],apparent KD of MS2 coat protein [3] [nM],apparent KD of MS2 coat protein [4] [nM]
"ACAUGAAAUUGAGGAUAUUUUGUACCUACAUGUGACAUGAGGAUCACCCAUGUGGUAAGUAUAAGAGAGAAGGCAAAGAUAUGU [Equivalence 6 - Jieux - Same State NG 2] (Eterna round: R96, puzzle: Same State NG 2)",30,29.2,45.1,–,–,–
"ACAUGAGACCAAGGAUAUUUUGUACCUACAUGUGACAUGAGGAUCACCCAUGUGGUAAGUAUGAGAGAGAAGGUGGAGAUAUGU [Equivalence 23 - Jieux - Same State NG 2] (Eterna round: R96, puzzle: Same State NG 2)",34.4,21.5,36.5,–,–,–
"ACAUGAGACCGAGGAUAUUUUGUACCUACAUGUGACAUGAGGAUCACCCAUGUGGUAAGUAUGAGAAAGAAGGCGGAGAUAUGU [Equivalence 20 - Jieux - Same State NG 2] (Eterna round: R96, puzzle: Same State NG 2)",22.4,24.8,32.6,–,–,–
"ACAUGAGACCUAGGAUAUCUUGUACCUACAUGUGACAUGAGGAUCACCCAUGUGGUAAGUAUGAGAGAGAAGGAGGAGAUAUGU [Equivalance 54 - Jieux - Same State NG 2] (Eterna round: R96, puzzle: Same State NG 2)",15.4,12.3,17.6,–,–,–
"ACAUGAGACUCAGGAUAUAUUGUACCUACAUGUGACAUGAGGAUCACCCAUGUGGUAAGUAUGACAUAGAAGGGAGAGAUAUGU [Equivalance 86 - Jieux - Same State NG 2] (Eterna round: R96, puzzle: Same State NG 2)",37.3,40.5,59.9,–,–,–
"ACAUGAGAGAUAGGAUAUUGUGUACCUACAUGUGACAUGAGGAUCACCCAUGUGGUAAGUAUGAGCAAGAAGGAUCAGAUAUGU [Equivalance 51 - Jieux - Same State NG 2] (Eterna round: R96, puzzle: Same State NG 2)",23.2,35.9,69.5,–,–,–
"ACAUGAGAGCUAGGAUAUUUUGUACCUACAUGUGACAUGAGGAUCACCCAUGUGGUAAGUAUGAGAAAGAAGGAGCAGAUAUGU [Equivalance 53 - Jieux - Same State NG 2] (Eterna round: R96, puzzle: Same State NG 2)",14.9,30.7,38,–,–,–
"ACAUGAGAGUUAGGAUAUCUUGUACCUACAUGUGACAUGAGGAUCACCCAUGUGGUAAGUAUGACAGAGAAGGAACAGAUAUGU [Equivalance 69 - Jieux - Same State NG 2] (Eterna round: R96, puzzle: Same State NG 2)",36.2,50.2,91.1,–,–,–
"ACAUGAGAGUUAGGAUAUCUUGUACCUACAUGUGACAUGAGGAUCACCCAUGUGGUAAGUAUGAGGGAGAAGGGACAGAUAUGU [Equivalence 44 - Jieux - Same State NG 2] (Eterna round: R96, puzzle: Same State NG 2)",67.4,54.4,84.7,–,–,–
"ACAUGAGAUAGAGGAUAUGUUGUACCUACAUGUGACAUGAGGAUCACCCAUGUGGUAAGUAUGAUACAGAAGGCUAAGAUAUGU [Equivalance 60 - Jieux - Same State NG 2] (Eterna round: R96, puzzle: Same State NG 2)",16.5,19.1,30.1,–,–,–
"ACAUGAGAUUUAGGAUAUAUAGUACCUACAUGUGACAUGAGGAUCACCCAUGUGGUAAGUAUGACAUAGAAGGAAAAGAUAUGU [Equivalance 98 - Jieux - Same State NG 2] (Eterna round: R96, puzzle: Same State NG 2)",–,47.9,–,–,–,–
"ACAUGAGGAUCACCCAUGUAUGCUCAGGAAACUGUGCAGCAUGAGGAUAUGGAUCCUAAUUGGAUCCAGAAGGCGUGAAUUAUU [Fiskers NG3ss - 25] (Eterna round: R96, puzzle: Same State NG 3)",507,692,2520,–,–,–
"ACAUGAGGAUCACCCAUGUCGCUGGUAUCGGAUACGUAUUACGAGGAUAUGCCGAGGAGUUCCGAGUAGAAGGUGUAAUACAUG [Eternabot solution 40] (Eterna round: R96, puzzle: Same State NG 3)",178,90.3,102,–,–,–
"ACAUUUAGCUCUUGCACAUGAGGAUCACCCAUGUUCGGUUCACAGGAUAUCUAGUCAAACGGGCUGGAGAAGGGUGGCAGGAGC [Islainon] (Eterna round: R96, puzzle: Same State NG 3)",67.9,200,289,–,–,–
"ACCCAAAGUAUAUGGGAGCAAGCUUUUUAACAUGAGGAUCACCCAUGUACUCGUCUUAUAAGCAGUCGAAAGACUGC [Sensor 100 - 4] (Eterna round: R96, puzzle: Sensor for hsa-mir-208a)",873,13.8,940,–,–,–
ACCCAAAGUAUAUGGGAGCAAGCUUUUUAACAUGAGGAUCACCCAUGUACUCGUCUUAUAAGCAGUCGAAAGACUGC [Sensor 100 - 4] (puzzle: Sensor for hsa-mir-208a),–,–,–,612,12.4,814
"ACCGCGUUUCGCGCCUACAUGAGGAUCACCCAUGUUUGUAGGCAGGAUAUCGUCCGCUCUGCGGGCGAGAAGGGCUGUUGUGGU [salish99_SSNG3_R04_028] (Eterna round: R96, puzzle: Same State NG 3)",49.3,42.9,60.8,–,–,–
ACGCAGCUGGGUAAGGAUAUCGGUGGUAAAACAUGAGGAUCACCCAUGUCCGAAGCUCGGACCUCCGAGAAGGUGCCCGGCUGCG [Soinraesar Omei Mod 7] (puzzle: Same State 2),–,–,–,–,6.58,–
ACGCAGCUGGGUGAGGAUAUCGGUGGUAAAACAUGAGGAUCACCCAUGUCCGAAGCUCGGACUUCCGAGAAGGCGCCCAACUGCA [Ercelama] (puzzle: Same State 2),–,–,–,12.9,55.1,70.9
ACGCAGCUGGGUGAGGAUAUCGGUGGUACAACAUGAGGAUCACCCAUGUCCGAAGCUCGGACCUCCGAGAAGGCGCCCGGCUGCG [Soinraesar Omei Mod 2] (puzzle: Same State 2),–,–,–,17.4,24.8,57.8
"ACUAGAAGCGGGCAAUAACACAUGAGGAUCACCCAUGUGACACAGGAUAUAACCAGAUCAGAAAGUUAGAAGGGUGAGCCCGCA [Usatbere] (Eterna round: R96, puzzle: Same State NG 3)",13.2,19.9,27.4,–,–,–
"AGAAAUCAACGCGCACAUGAGGAUCACCCAUGUGCUCAAGCACAGGAUAUCGGCACAAGACAGGCCGAGAAGGGUGGAGCACGA [Eternabot solution 3] (Eterna round: R96, puzzle: Same State NG 3)",14.7,19.7,24.1,–,–,–
AGAGAACAUGAGGAUCACCCAUGUGAGAGGGAUGUAGGAUAUGUAAGGAAGAAAGAAGGAACAGAAGGACAAAGAG [JR_SS!_Sub066] (puzzle: Same State 1),–,–,–,50.5,78.5,70.7
AGAGCCGGCACUGAGGAUAUUCAUAAUAAAACAUGAGGAUCACCCAUGUAGGCCAGAAGGCCUUGGGAGAAGGCAGGUCGGCUCU [Mat - Same State 2 - Mod of UCT - D69] (puzzle: Same State 2),–,–,–,17.7,168,220
"AGAGGAGGAGCAGGAUAUUCGAAGAAGGACGUGGAAGAAGGGUUCAUGCGAUGACAUGAGGAUCACCCAUGUACCGCGCGAUGA [AK SSNG1-V2-13] (Eterna round: R96, puzzle: Same State NG 1)",145,115,130,–,–,–
"AGAGGAGGAGCAGGAUAUUCGAAGAAGGACGUGGAAGAAGGGUUCAUGCGAUGACAUGAGGAUCACCCAUGUACCGCGCGUUGA [AK SSNG1-V2-14] (Eterna round: R96, puzzle: Same State NG 1)",185,78.6,156,–,–,–
"AGAGGAGGCGCAGGAUAUACGACGGAGGACGAGGUAGAAGGGUGCAUGCGAUAACAUGAGGAUCACCCAUGUACCGCGCGACGA [AK SSNG1-V2-17.1] (Eterna round: R96, puzzle: Same State NG 1)",122,24.9,45.6,–,–,–
"AGAGGAGGCGCAGGAUAUACGACGGAGGACGUGGUAGAAGGGUGCAUGCGAAAACAUGAGGAUCACCCAUGUACCGCGCGACGA [ssng1 c] (Eterna round: R96, puzzle: Same State NG 1)",816,30.1,126,–,–,–
AGAGUGUAUCCACAGGAUAUGCGAGCUGACACAUGAGGAUCACCCAUGUAGUCCUAAAGGGCCAAGCAGAAGGGUGGUAAAGCUC [Oneson] (puzzle: Same State 2),–,–,–,17.5,28.9,33.9

# Source: the supplement of paper PMC9170038
